{
  "source": "paper PMC5358978",
  "about": "(2017)",
  "target": "human CRM1 (HsCRM1), wild type (human, UniProt O14980 1-1071)",
  "sequence (O14980 whole entry)": "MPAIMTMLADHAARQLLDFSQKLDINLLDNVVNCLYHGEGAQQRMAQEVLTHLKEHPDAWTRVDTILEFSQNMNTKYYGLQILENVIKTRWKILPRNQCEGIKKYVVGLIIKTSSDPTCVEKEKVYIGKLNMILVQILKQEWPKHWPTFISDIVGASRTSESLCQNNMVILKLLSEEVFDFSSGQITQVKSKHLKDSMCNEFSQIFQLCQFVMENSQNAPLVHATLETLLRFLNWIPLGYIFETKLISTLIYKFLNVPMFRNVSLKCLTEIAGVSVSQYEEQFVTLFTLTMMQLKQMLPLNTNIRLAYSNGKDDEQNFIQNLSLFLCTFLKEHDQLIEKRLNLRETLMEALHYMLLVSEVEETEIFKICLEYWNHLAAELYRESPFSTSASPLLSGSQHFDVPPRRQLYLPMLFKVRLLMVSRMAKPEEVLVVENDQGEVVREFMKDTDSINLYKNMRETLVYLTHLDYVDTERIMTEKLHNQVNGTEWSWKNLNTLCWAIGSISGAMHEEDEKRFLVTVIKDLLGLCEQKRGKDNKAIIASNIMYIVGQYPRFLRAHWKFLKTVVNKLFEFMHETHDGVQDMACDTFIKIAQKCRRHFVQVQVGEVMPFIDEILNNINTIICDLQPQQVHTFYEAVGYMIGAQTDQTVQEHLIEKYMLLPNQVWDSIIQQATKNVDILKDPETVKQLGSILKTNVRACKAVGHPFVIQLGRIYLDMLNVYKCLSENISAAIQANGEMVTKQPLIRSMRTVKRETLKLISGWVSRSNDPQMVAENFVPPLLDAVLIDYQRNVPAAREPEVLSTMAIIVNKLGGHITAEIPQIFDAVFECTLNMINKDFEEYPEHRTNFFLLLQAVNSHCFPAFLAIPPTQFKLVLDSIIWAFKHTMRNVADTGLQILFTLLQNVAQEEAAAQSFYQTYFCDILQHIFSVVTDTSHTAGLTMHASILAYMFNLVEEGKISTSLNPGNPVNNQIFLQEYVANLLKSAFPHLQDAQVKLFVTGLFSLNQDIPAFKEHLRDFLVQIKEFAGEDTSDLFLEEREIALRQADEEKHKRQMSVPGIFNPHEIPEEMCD",
  "assay": "direct titration, PKI WT set",
  "data": [
    {"binder": "NSNELALKLAGLDINKT (FITC label (FITC-PKI^NES))", "note": "[FITC-PKI NES (NES of Protein Kinase A Inhibitor, wild type)]", "values": [
      {"measurement": "Kd", "value": 0.029, "unit": "µM"}
    ]}
  ]
}
